Data published in paper PMC3896602 (mAbs, 2013).

Key:
Assay in all cases: SPR
[1] = target: human CXCL13 (Homo sapiens, UniProt O43927)
[2] = target: IT1-Fc-A1 scFv-Fc-scFv bispecific molecule (human)
[3] = target: IT1-Fc-E10 scFv-Fc-scFv bispecific molecule (human)
[4] = target: IT1-Fc-3B4 scFv-Fc-scFv bispecific molecule (human)

Binder	Kd [1] [nM]	koff [1] [s⁻¹]	kon [1] [M⁻¹ s⁻¹]	Kd [2] [nM]	Kd [3] [nM]	Kd [4] [nM]
anti-CXCL13 3B4 scFv-Fc fusion protein (Fc fusion, human) VH: QVQLVQSGAEVKKPGSSVKVSCKASGGTFSSYAISWVRQAPGQGLEWMGGIIPIFGTANYAQKFQGRVTITADESTSTAYMELSSLRSEDTAVYYCAREPDYYDSSGYYPIDAFDIWGQGTTVTVSS VL: QSALTQPASVSASPGQSITISCTGTSSDVGAYDWVSWYQQHPGKAPKLLIFDVNNRPSGVSHRFSGSKSGNTASLTISGLQAEDEADYYCSSYTRRDTYVFGTGTKVTVL	0.371	0.0121	3.24e+07	–	–	–
anti-CXCL13 C07 scFv-Fc fusion protein (Fc fusion, human) VH: QVQLVQSGAEVKKPGSSVKVSCKASGGTFSSYAISWVRQAPGQGLEWMGGIIPIFGTANYAQKFQGRVTITADESTSTAYMELSSLRSEDTAVYYCAREPDYYDSSGYYPIDAFDIWGQGTTVTVSS VL: QSALTQPASVSASPGQSITISCTGTSSDVGAYDWVSWYQQHPGKAPKLLIFDVNNRPSGVSHRFSGSKSGNTASLTISGLQAEDEADYYCSSPTFTEPYVFGTGTKVTVL	0.0279	0.0002	8.03e+06	–	–	–
anti-CXCL13 H06 scFv-Fc fusion protein (Fc fusion, human) VH: QVQLVQSGAEVKKPGSSVKVSCKASGGTFSSYAISWVRQAPGQGLEWMGGIIPIFGTANYAQKFQGRVTITADESTSTAYMELSSLRSEDTAVYYCAREPDYYDSSGYYPIDAFDIWGQGTTVTVSS VL: QSALTQPASVSASPGQSITISCTGTSSDVGAYDWVSWYQQHPGKAPKLLIFDVNNRPSGVSHRFSGSKSGNTASLTISGLQAEDEADYYCASVVVTDTYVFGTGTKVTVL	0.0376	0.0003	7.54e+06	–	–	–

Further lines, results first:

Kd [1] [nM]	koff [1] [s⁻¹]	kon [1] [M⁻¹ s⁻¹]	Kd [2] [nM]	Kd [3] [nM]	Kd [4] [nM]	Binder
0.0298	0.0003	9.28e+06	–	–	–	anti-CXCL13 A01 scFv-Fc fusion protein (Fc fusion, human) VH: QVQLVQSGAEVKKPGSSVKVSCKASGGTFSSYAISWVRQAPGQGLEWMGGIIPIFGTANYAQKFQGRVTITADESTSTAYMELSSLRSEDTAVYYCAREPDYYDSSGYYPIDAFDIWGQGTTVTVSS VL: QSALTQPASVSASPGQSITISCTGTSSDVGAYDWVSWYQQHPGKAPKLLIFDVNNRPSGVSHRFSGSKSGNTASLTISGLQAEDEADYYCASTTLFDTYVFGTGTKVTVL
0.0454	0.0005	9.81e+06	–	–	–	anti-CXCL13 E10 scFv-Fc fusion protein (Fc fusion, human) VH: QVQLVQSGAEVKKPGSSVKVSCKASGGTFSSYAISWVRQAPGQGLEWMGGIIPIFGTANYAQKFQGRVTITADESTSTAYMELSSLRSEDTAVYYCAREPDYYDSSGYYPIDAFDIWGQGTTVTVSS VL: QSALTQPASVSASPGQSITISCTGTSSDVGAYDWVSWYQQHPGKAPKLLIFDVNNRPSGVSHRFSGSKSGNTASLTISGLQAEDEADYYCASATLLDTYVFGTGTKVTVL
0.0199	0.0002	8.53e+06	–	–	–	anti-CXCL13 H08 scFv-Fc fusion protein (Fc fusion, human) VH: QVQLVQSGAEVKKPGSSVKVSCKASGGTFSSYAISWVRQAPGQGLEWMGGIIPIFGTANYAQKFQGRVTITADESTSTAYMELSSLRSEDTAVYYCAREPDYYDSSGYYPIDAFDIWGQGTTVTVSS VL: QSALTQPASVSASPGQSITISCTGTSSDVGAYDWVSWYQQHPGKAPKLLIFDVNNRPSGVSHRFSGSKSGNTASLTISGLQAEDEADYYCTSVTVEDTYVFGTGTKVTVL
0.046	0.0003	6.22e+06	–	–	–	anti-CXCL13 C04 scFv-Fc fusion protein (Fc fusion, human) VH: QVQLVQSGAEVKKPGSSVKVSCKASGGTFSSYAISWVRQAPGQGLEWMGGIIPIFGTANYAQKFQGRVTITADESTSTAYMELSSLRSEDTAVYYCAREPDYYDSSGYYPIDAFDIWGQGTTVTVSS VL: QSALTQPASVSASPGQSITISCTGTSSDVGAYDWVSWYQQHPGKAPKLLIFDVNNRPSGVSHRFSGSKSGNTASLTISGLQAEDEADYYCSSAGIISVYVFGTGTKVTVL
–	–	–	0.01	0.067	0.8	human CXCL13 (natural protein) VLEVYYTSLRCRCVQESSVFIPRRFIDRIQILPRGNGCPRKEIIVWKKNKSIVCVDPQAEWIQRMMEVLRKRSSSTLPVPVFKRKIP
